Experimental findings from patent US20180030151A1 (MOGAM INSTITUTE FOR BIOMEDICAL RESEARCH, published 2018) are described below.

B1: clone A52 (antibody, V domains shown)
VH: EVQLVESGGGLVKPGGSLRLSCAASGFTFSSYAMNWVRQAPGKGLEWVSTITTGGSHTYYADSVDGRFTISRDNAKNSLYLQMNSLRAEDTAVYYCARQDGNFLMDYWGQGTLVTVSS
VL: DVVMTQTPLSLPVTLGQPASISCKSSQSLLDIDGKTYLNWLQQRPGQSPKRLIYLVSKLDSGVPDRFTGSGSGTDFTLKISRVEAEDVGVYYCWQGTHFPFTFGQGTKVEIKR
notes: Fab from phage library at selection; human IgG4/kappa IgG as purified
B2: clone A74 (antibody, V domains shown)
VH: B1 VH with N35H, H57Y, D65Q
VL: B1 VL
notes: as for B1
B3: clone A71 (antibody, V domains shown)
VH: B1 VH with H57Y, D65H
VL: B1 VL with I32T
notes: as for B1

Where a chain is given by its changes, count along the chain named.

For the experiment, the target named is T1, recombinant human TFPI (tissue factor pathway inhibitor) (human, UniProt P10646 29-304).
T1 construct: Biotin-conjugated in the yeast FACS; also called hTFPI; TFPI antigen
Description: ELISA of phage-library Fab supernatants on TFPI-coated plate. The protocol: Single colonies were collected from the finally amplified library, and then cultured in 1.5 mL of SB/carbenicillin at 37° C. at 220 rpm until an OD600 of about 0.8-1.0 was reached, followed by incubation with 1 mM IPTG at 30° C. at 200 rpm for 12 hours. Next, the cells were centrifuged at 5500 rpm for 5 minutes, and the supernatant was added to a TFPI antigen-coated ELISA plate, incubated at room temperature for 2 hours, and then washed four times with PBST (1×PBS, 0.05% tween 20). Next, a 1:5000 dilution of an HRP/anti-hFab-HRP conjugate (CAT. No. A0293, Sigma) with 1% BSA/1×PBS was added to the cells, after which the cells were incubated at room temperature for 1 hour and washed four times with PBST (1×PBS, 0.05% tween 20). Then, the cells treated with a TMB solution for 5-10 minutes, and a TMB stop solution was added to the cells. Next, the absorbance at a wavelength of 450 nm was measured using the TECAN sunrise, and clones having high O. D values were selected as individual clones.
(In an ELISA, binding on a coated surface is turned into a signal by an enzyme label.)
Consider B1, for which the binding result is recorded as “binds”.

Take B2: the binding result is on record as “binds”.

As for B3, the binding result is “binds”.
